Test results as given in the supplement of paper PMC11246515.
± gives the standard deviation of the averaged measurements.

Assay: total protein half-life in vivo (active degradation + dilution); higher = more stable protein
[1] = E. coli NCM3722 delta-clpP delta-lon delta-hslV, growth: N-lim chemostat, doubling time 6 h
[2] = E. coli NCM3722 delta-clpP, growth: N-lim chemostat, doubling time 6 h
[3] = E. coli NCM3722 delta-hslV, growth: N-lim chemostat, doubling time 6 h
[4] = E. coli NCM3722 delta-lon, growth: N-lim chemostat, doubling time 6 h
[5] = E. coli NCM3722 delta-smpB, growth: N-lim chemostat, doubling time 6 h
[6] = wild type E. coli NCM3722, growth: C-lim chemostat, doubling time 3 h
[7] = wild type E. coli NCM3722, growth: C-lim chemostat, doubling time 6 h
[8] = wild type E. coli NCM3722, growth: C-lim chemostat, doubling time 12 h
[9] = wild type E. coli NCM3722, growth: N-lim chemostat, doubling time 6 h
[10] = wild type E. coli NCM3722, growth: N-lim chemostat, doubling time 12 h
[11] = wild type E. coli NCM3722, growth: P-lim chemostat, doubling time 6 h
[12] = wild type E. coli NCM3722, growth: P-lim chemostat, doubling time 12 h

| Sequence | total protein half-life in vivo [1] [h] | total protein half-life in vivo [2] [h] | total protein half-life in vivo [3] [h] | total protein half-life in vivo [4] [h] | total protein half-life in vivo [5] [h] | total protein half-life in vivo [6] [h] | total protein half-life in vivo [7] [h] | total protein half-life in vivo [8] [h] | total protein half-life in vivo [9] [h] | total protein half-life in vivo [10] [h] | total protein half-life in vivo [11] [h] | total protein half-life in vivo [12] [h] |
| --- | --- | --- | --- | --- | --- | --- | --- | --- | --- | --- | --- | --- |
| MHWQTHTVFNQPIPLNNSNLYLSDGALCEAVTREGAGWDSDFLASIGQQLGTAESLELGRLANVNPPELLRYDAQGRRLDDVRFHPAWHLLMQALCTNRVHNLAWEEDARSGAFVARAARFMLHAQVEAGSLCPITMTFAATPLLLQMLPAPFQDWTTPLLSDRYDSHLLPGGQKRGLLIGMGMTEKQGGSDVMSNTTRAERLEDGSYRLVGHKWFFSVPQSDAHLVLAQTAGGLSCFFVPRFLPDGQRNAIRLERLKDKLGNRSNASCEVEFQDAIGWLLGLEGEGIRLILKMGGMTRFDCALGSHAMMRRAFSLAIYHAHQRHVFGNPLIQQPLMRHVLSRMALQLEGQTALLFRLARAWDRRADAKEALWARLFTPAAKFVICKRGMPFVAEAMEVLGGIGYCEESELPRLYREMPVNSIWEGSGNIMCLDVLRVLNKQAGVYDLLSEAFVEVKGQDRYFDRAVRRLQQQLRKPAEELGREITHQLFLLGCGAQMLKYASPPMAQAWCQVMLDTRGGVRLSEQIQNDLLLRATGGVCV | 4.81 ± 0.12 | 4.91 ± 0.18 | 5.583 ± 0.035 | 4.72 ± 0.15 | 5.28 ± 0.11 | 3.296 ± 0.026 | 5.91 ± 0.25 | 11.3 ± 0.59 | 5.18 ± 0.13 | 11.5 ± 0.84 | 6.51 ± 0.25 | 11.5 ± 0.058 |
| MIAEFESRILALIDGMVDHASDDELFASGYLRGHLTLAIAELESGDDHSAQAVHTTVSQSLEKAIGAGELSPRDQALVTDMWENLFQQASQQ | 4.91 ± 0.31 | 3.35 ± 0.41 | 2.9 ± 0.23 | 3.81 ± 0.062 | 2.1 ± 0.046 | 2.2 ± 0.23 | 3.39 ± 0.1 | 4.87 ± 0.25 | 2.71 ± 0.54 | 3.79 | 2.75 ± 0.83 | 4.58 ± 0.62 |
| MIAITGATGQLGHYVIESLMKTVPASQIVAIVRNPAKAQALAAQGITVRQADYGDEAALTSALQGVEKLLLISSSEVGQRAPQHRNVINAAKAAGVKFIAYTSLLHADTSPLGLADEHIETEKMLADSGIVYTLLRNGWYSENYLASAPAALEHGVFIGAAGDGKIASATRADYAAAAARVISEAGHEGKVYELAGDSAWTLTQLAAELTKQSGKQVTYQNLSEADFAAALKSVGLPDGLADMLADSDVGASKGGLFDDSKTLSKLIGHPTTTLAESVSHLFNVNN | 5.42 ± 0.13 | 4.93 ± 0.067 | 4.99 ± 0.61 | 5.3 ± 0.25 | 4.569 ± 0.035 | 3.2 ± 0.18 | 5.84 ± 0.31 | 8.9 ± 2 | 5.15 ± 0.28 | 8.33 | 6.72 ± 0.65 | 13.1 ± 1.4 |
| MICRFIDTHCHFDFPPFSGDEEASLQRAAQAGVGKIIVPATEAENFARVLALAENYQPLYAALGLHPGMLEKHSDVSLEQLQQALERRPAKVVAVGEIGLDLFGDDPQFERQQWLLDEQLKLAKRYDLPVILHSRRTHDKLAMHLKRHDLPRTGVVHGFSGSLQQAERFVQLGYKIGVGGTITYPRASKTRDVIAKLPLASLLLETDAPDMPLNGFQGQPNRPEQAARVFAVLCELRREPADEIAQALLNNTYTLFNVP | 5.92 ± 0.41 | 4.26 ± 0.21 | 4.72 ± 0.12 | 6.38 ± 1.4 | 4.45 ± 0.36 | 3.12 ± 0.34 | > 8 | 9.45 ± 4.5 | 4.57 ± 0.41 | 8.41 ± 1.9 |  | 12.3 ± 0.15 |
| MIDPKKIEQIARQVHESMPKGIREFGEDVEKKIRQTLQAQLTRLDLVSREEFDVQTQVLLRTREKLALLEQRISELENRSTEIKKQPDPETLPPTL |  | 6.97 ± 0.85 | 6.5 ± 1.2 | 5.8 ± 0.65 | 5.79 ± 0.91 | 3.5 ± 0.19 | 5.53 ± 0.24 |  | 4.27 ± 0.63 | 11.5 ± 5.3 | 4.66 ± 1.2 | 10.8 ± 0.66 |
| MIDVLGPEKRRRRTTQEKIAIVQQSFEPGMTVSLVARQHGVAASQLFLWRKQYQEGSLTAVAAGEQVVPASELAAAMKQIKELQRLLGKKTMENELLKEAVEYGRAKKWIAHAPLLPGDGE [P0CF42] | 2.54 ± 0.27 |  |  |  |  | 0.121 |  | 1.26 | 0.716 | 1.37 |  |  |
| MIEFDNLTYLHGKPQGTGLLKANPEDFVVVEDLGFEPDGEGEHILVRILKNGCNTRFVADALAKFLKIHAREVSFAGQKDKHAVTEQWLCARVPGKEMPDLSAFQLEGCQVLEYARHKRKLRLGALKGNAFTLVLREVSNRDDVEQRLIDICVKGVPNYFGAQRFGIGGSNLQGAQRWAQTNTPVRDRNKRSFWLSAARSALFNQIVAERLKKADVNQVVDGDALQLAGRGSWFVATTEELAELQRRVNDKELMITAALPGSGEWGTQREALAFEQAAVAAETELQALLVREKVEAARRAMLLYPQQLSWNWWDDVTVEIRFWLPAGSFATSVVRELINTTGDYAHIAE | 5.52 ± 0.077 | 5.85 ± 0.93 | 5.53 ± 0.64 | 6.03 ± 0.79 | 5.8 ± 0.21 | 3.11 ± 0.11 | 5.78 ± 0.067 | 12.8 ± 1.1 | 4.93 ± 0.21 | 9.75 ± 0.26 | 5.99 ± 0.14 | 12.6 ± 0.88 |
